Measurements: US11707511B2, “Vaccine compositions and methods of using the same” (The Board of Supervisors of Louisiana State University and …, priority 2017, dated 2023)

Legend:
[1] = system: C. albicans 3153A; assay: Passive transfer of mAbs or mAb cocktails i.p. before lethal i.v. challenge, mouse model of human disseminated candidiasis; type: in vivo, Candida albicans; conditions: for Protection against C. albicans / Protection against C. albicans (grade word): Table 6, single mAb 0.5 ml i.p. 4 h before i.v. 5×10^5 C. albicans 3153A, BALB/c mice; for Protection against Candida spp in mouse model: Against C. albicans / Protection against Candida spp in mouse model: Against C. albicans (grade word): Table 9; for Protection of adsorbed mAb / Protection / Protection (grade word): Table 15; for Protection of adsorbed mAb: mAb removed by absorption with Candida cells before transfer; for Protection / Protection (grade word): single universal peptide-specific mAb, C. albicans
Experimental: Passive transfer of MAbs by intraperitoneal (i.p.) route. The preventive effect of peptide-specific mAbs listed in Table 3 and Table 4 in naïve mice was examined by passive transfer experiments. […] For testing, mice received 0.5 ml of each mAb or 1 ml of two mAbs in combination (0.5 ml of each) intraperitoneally. […] The negative control materials tested in mice were single mAb or DPBS. Control mice received 0.5 ml of the DPBS diluents or single mAb treatment. For each condition, 6- to 8-week-old female BALB/c mice (NCI) were given 0.5 ml of test mAb, or 1 ml two mAb cocktails or control materials intraperitoneally, followed 4 h later by 0.1 ml intravenously of defined lethal dose of yeast cells per milliliter of DPBS. Mice were divided into groups with five mice each and three independent experiments were carried out. In some experiments, mice were given the same dose of mAbs or control materials on every other day post-challenge for two weeks, as compared to the protective efficacy of mAb in combinations. All mice were sacrificed on day 50. For animal groups that were challenged non-albicans candida species, determined optimal challenge doses were applied for each candida strain.
The hybridoma clones that produce the universal peptide specific mAbs listed above were generated from mice vaccinated with peptide-pulsed dendritic cell (DC) preparation as described previously (6). The isotype of mAb was determined with a Mouse Monoclonal Antibody Isotyping Kit (Pierce, USA). […] In detail, BALB/c mice were given an i.p dose of each mAb four hours before hematogenous challenged with a lethal dose of C. albicans3153A cells. […] Importantly, passive protection was prevented by removal of the mAbs by absorption with Candida cells before transfer, which provided strong additional evidence for the protection being due to the mAb.
The three cell wall proteins were selected because of expression during human candidiasis and cell wall association, and included fructose-bisphosphate aldolase (Fba); methyltetrahydropteroyltriglutamate-homocysteine methyltransferase (Met6); hyphal wall protein-1 (Hwp1). The hybridoma clones listed at Table 5, which produce the peptide specific mAbs, were generated from mice vaccinated with peptide-pulsed dendritic cell (DC) preparation as described previously (6). The isotype of mAb was determined with a Mouse Monoclonal Antibody Isotyping Kit (Pierce, USA). […] Importantly, passive protection was prevented by removal of the mAbs by absorption with Candida cells before transfer, which provided strong additional evidence for the protection being due to the mAb).
The preventive effect of each universal peptide-specific mAb was examined by passive transfer experiments. […] For testing, 5 mice of each tested group received 0.5 ml of each mAb intraperitoneally. The negative control materials tested in mice were mAbs absorbed with C. albicans yeast cells (3153A) and DPBS. Control mice received 0.5 ml of the DPBS diluents or adsorbed mAb solution. For each condition, 6- to 8-week-old female BALB/c mice (NCI) were given 0.5 ml of test mAb, or control materials intraperitoneally, followed 4 h later by 0.1 ml intravenously of a suspension containing lethal dose of Candida cells per milliliter of DPBS. Mice were divided into groups with five mice each and three independent experiments were carried out. We have developed neutropenic murine models of disseminated infection by C. glabrata, C. tropicalis and C. parapsilosis. To induce neutropenia, naïve mice received a 200 mg/kg dose of cyclophosphamide (CY) by i.p. on day −3. Prolonged neutropenia were maintained for 30-50 days by giving each animal a 150 mg/kg dose of CY by i.p. every 10 days after infection.

[2] = system: C. auris; assay: Passive transfer of mAbs in cyclophosphamide-immunosuppressed B6.129X1Elane mice, disseminated infection by C. auris; type: in vivo, Candida auris; conditions: 2×108 C. auris i.v.
Experimental: An immunocompromised murine model of disseminated infection by C. auris was developed. To induce immunosuppression, Jackson B6.129X1Elane mice received a 200 mg/kg dose of cyclophosphamide (CY) by i.p. on day −3. Prolonged immunosuppression was maintained for 30 days by giving each animal a 200 mg/kg dose of CY by i.p. every 10 days after infection. On day 0, mice of different experimental groups were intravenously infected with 2×10^8 viable C. auris yeast cells.
The preventive effect of peptide-specific mAbs, for example 7H6A2 and 1D4H5, and combinations thereof, for example 7H6A2+1D4H5, was examined by passive transfer experiments. Each mAb was appropriately diluted in DPBS to give a 40,000-100,000 ELISA titer against each corresponding specific peptide coated on the plate. For testing, mice received 0.5 ml of each mAb or 1 ml of two mAbs in combination (0.5 ml of each) intraperitoneally. Control mice received 0.5 ml of the DPBS diluents.
Protective mAbs protect immunocompromised mice against disseminated infection by Candida auris: The possibility of using passive mAb immunotherapy in immunocompromised mice against disseminated candidiasis by C. auris. The protective effect of mAb 7H6A2, 1D4H5 or these two mAbs in combination against the disease in immunocompromised mice was examined by passive transfer experiments (FIG. 14). Mice received either mAb 7H6A2 or 1D4H5 or the two mAbs in combination had reduced CFUs in kidneys (FIG. 14A) and in brains (FIG. 14B) as compared with control mice.

[3] = system: C. auris AR-0386; assay: Passive transfer of mAbs or two mAbs in combination in A/J mouse model of invasive C. auris infection; type: in vivo, Candida auris
Experimental: A. Complement protein C5-defecient A/J mice were treated with one of the five mAb or with DPBS as a vehicle control. The following day, mice were challenged with 1×10^8 C. auris cells/100 ul DPBS dose per mouse. […] B. Fungal burdens in the kidneys (top), heard (center), and brain (bottom).
Identified protective mAbs were obtained by use of standard hybridoma technique and purified by use of protein A/G. A/J mice were given an i.p. dose of either single mAb or two mAbs in combination 24 hours before hematogensous challenge with a lethal dose (2×108) of C. auris AR-0386 live cells. Mice received either 9G2F5 alone or 6H1G8 alone or 9F2G5 and 3H7E3 in combination had 40% survival rate respectively, with prolonged survival as compared to control animals that received DPBS buffer control.
Evaluation and validation of a panel of peptide-specific monoclonal antibodies (mAbs) as a passive immunization strategy protect against invasive C. auris infection in established A/J mouse model of human disease.
The monoclonal antibodies used in this experiment were: • 6H1G8 (IgG2b), α-Hwp1 (Hyphal wall protein) • 3E2G2 (IgG2b), α-Fba (Fructose bisphosphate aldolase) • 10E7E2 (IgG1), α-GPV-P3 (General peptide vaccine 3 from Phosphoglycerate kinase) • 9F2G5 (IgG2a), α-Pgk1 (Phosphoglycerate kinase) • 3H7E3 (IgG1), α-Met6 (Methyltetrahydropteroyltriglutamate)

Row | Molecule | Protection against C. albicans [1] | Protection against C. albicans (grade word) [1] | Protection against Candida spp in mouse model: Against C. albicans [1] | Protection against Candida spp in mouse model: Against C. albicans (grade word) [1] | Protection of adsorbed mAb [1] | Protection [1] | Protection (grade word) [1] | CFUs in kidneys as compared with control mice ([2]; FIG. 14A) | CFUs in brains as compared with control mice ([2]; FIG. 14B) | fungal burdens in targeted organs ([3]; A/J mouse model, in words) | protection against C. auris invasive infection ([3]; A/J mouse model, in words) | survival ([3]; FIG. 15A, A/J mice, 1×10^8 C. auris cells, experiment terminated 40 days post challenge) | Protection against C. auris ([3]; Table 19, A/J strain mice) | Protection against C. auris (grade word) ([3]; Table 19, A/J strain mice)
1 | 1D4H5: IgG1 mAb of hybridoma 1D4H5, specific for GPV-M1; VH SEQ ID NO: 64, VL SEQ ID NO: 66 (antibody, V domains shown) VH: MYLGLNCVFIVFLLKGVQSEVKLEESGGGLVQPGGSMKLSCVASGFTFSNYWMNWVRQSPEKGLEWVAEIRLKSNNYATHYAESVKGRFTISSDDSKSSVYLQMNNLRAEDTGIYYCSTGNYWGQGTTLTVSS VL: MDFQMQIISLLLISVTVIVSNGEIVLTQSPTTMAASPGEKITITCSASSTISSNYLHWYQQKPGFSPKLLIYRTSNLASGVPARFSGSGSGTSYSLTIGTMEAEDVATYYCQQGSTISRTFGSGTKLEIK | (70-80%) | High | (70-80%) | High | None | (70-80%) | High | reduced CFUs | reduced CFUs | – | – | – | – | –
2 | 10E7E2: IgG1 mAb of hybridoma 10E7E2, specific for GPV-P3; VH SEQ ID NO: 72, VL SEQ ID NO: 74 (antibody, V domains shown) VH: QVQLKQSGPGLVQPSQSLSITCTVSGFSLTSYGVHWVRQSPGKGLEWLGVIWSGGTTDYNAAFISRLSISKDNSKSQVFFKMNSLQANDTAIYYCARGGHRGFAYWGQGTLVTVSA VL: DIVMTQSHKFMSTSVGDRVSITCKASQDVGTAVAWYQQKPGQSPKLLIYWASTRHTGVPDRFTGSGSGTDFTLTISNVQSEDLADYFCQQYSSYPLTFGAGTKLELK | (80-100%) | High | (80-100% | High | None | (80-100%) | High | – | – | lower fungal loads | protect against C. auris invasive infection | 25% | 80-100% | High
